# According to the supplement of paper PMC9112550, “Optimization of the antimicrobial peptide Bac7 by deep mutational scanning” (BMC Biology, 2022):
# Test system: Escherichia coli TOP10
# Assay: shrunken log2 fold change of peptide-encoding DNA abundance (4.5 h post-induction vs induction); higher = less antimicrobial activity (less host growth inhibition)
# Settings: time post-induction: 4.5 h; library: site-saturation at positions 5, 18, 19, 20
# 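Also: peptides expressed intracellularly from a pBAD plasmid library in pooled LB shake-flask culture, induced with 0.3% L-arabinose, DNA abundance read by NGS, three biological replicates, DESeq2 with apeglm shrinkage.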
row,Sequence,shrunken log2 fold change
1,RRIRTRPPRLPRPRPRPYCGPRP,-0.294
2,RRIRNRPPRLPRPRPRPESHPRP,-0.0363
3,RRIRPRPPRLPRPRPRPCPQPRP,-0.0291
4,RRIRARPPRLPRPRPRPHTFPRP,-0.314
5,RRIRTRPPRLPRPRPRPTVGPRP,0.155
6,RRIRERPPRLPRPRPRPRCSPRP,0.0243
7,RRIRERPPRLPRPRPRPYSHPRP,0.0583
8,RRIRERPPRLPRPRPRPEQSPRP,-0.0108
9,RRIRWRPPRLPRPRPRPCREPRP,-0.189
10,RRIRQRPPRLPRPRPRPCTPPRP,-0.141
11,RRIRDRPPRLPRPRPRPPQKPRP,-0.0517
12,RRIRQRPPRLPRPRPRPSREPRP,0.111
13,RRIRTRPPRLPRPRPRPIWVPRP,-0.0869
14,RRIRPRPPRLPRPRPRPIQYPRP,-0.642
15,RRIRDRPPRLPRPRPRPKSNPRP,-0.305
16,RRIRHRPPRLPRPRPRPRVFPRP,0.201
17,RRIRVRPPRLPRPRPRPEDIPRP,-0.311
18,RRIRRRPPRLPRPRPRPMWMPRP,0.0619
19,RRIRMRPPRLPRPRPRPCMKPRP,-0.125
20,RRIRGRPPRLPRPRPRPPTTPRP,0.91
21,RRIRQRPPRLPRPRPRPVFIPRP,-0.288
22,RRIRARPPRLPRPRPRPTLGPRP,0.504
23,RRIRDRPPRLPRPRPRPHARPRP,0.0493
24,RRIRHRPPRLPRPRPRPNEFPRP,-0.00664
25,RRIRGRPPRLPRPRPRPNIFPRP,0.398

row,Sequence,shrunken log2 fold change
1,RRIRHRPPRLPRPRPRPNEKPRP,-0.0239
2,RRIRPRPPRLPRPRPRPWIHPRP,-0.44
3,RRIRVRPPRLPRPRPRPAIRPRP,0.0362
4,RRIRIRPPRLPRPRPRPCFCPRP,-0.422
5,RRIRVRPPRLPRPRPRPGRSPRP,0.649
6,RRIRLRPPRLPRPRPRPGSCPRP,0.0403
7,RRIRKRPPRLPRPRPRPVQTPRP,0.914
8,RRIRFRPPRLPRPRPRPHHVPRP,-0.323
9,RRIRIRPPRLPRPRPRPNEPPRP,-0.0172
10,RRIRCRPPRLPRPRPRPLEFPRP,-0.245
11,RRIRHRPPRLPRPRPRPGSEPRP,0.176
12,RRIRQRPPRLPRPRPRPLFCPRP,0.213
13,RRIRARPPRLPRPRPRPHQQPRP,0.33
14,RRIRKRPPRLPRPRPRPVARPRP,0.397
15,RRIRARPPRLPRPRPRPDSCPRP,0.156
16,RRIRMRPPRLPRPRPRPKHDPRP,0.43
17,RRIRGRPPRLPRPRPRPMWFPRP,0.185
18,RRIRWRPPRLPRPRPRPLHQPRP,0.0809
19,RRIRERPPRLPRPRPRPPEDPRP,2.12
20,RRIRCRPPRLPRPRPRPSGRPRP,0.235
21,RRIRGRPPRLPRPRPRPNVQPRP,1.08
22,RRIRHRPPRLPRPRPRPRKHPRP,-0.113
23,RRIRSRPPRLPRPRPRPTLAPRP,0.542
24,RRIRERPPRLPRPRPRPNCHPRP,-0.336
25,RRIRIRPPRLPRPRPRPKTVPRP,0.0407

row,Sequence,shrunken log2 fold change
1,RRIRARPPRLPRPRPRPCSVPRP,0.0736
2,RRIRPRPPRLPRPRPRPLDNPRP,-0.171
3,RRIRVRPPRLPRPRPRPRIMPRP,-0.601
4,RRIRFRPPRLPRPRPRPWIFPRP,-0.00568
5,RRIRHRPPRLPRPRPRPLNWPRP,0.0279
6,RRIRDRPPRLPRPRPRPLMQPRP,0.823
7,RRIRNRPPRLPRPRPRPTKYPRP,-0.564
8,RRIRYRPPRLPRPRPRPGTFPRP,-0.53
9,RRIRNRPPRLPRPRPRPYRCPRP,-0.153
10,RRIRARPPRLPRPRPRPSREPRP,0.816
11,RRIRQRPPRLPRPRPRPAGTPRP,0.134
12,RRIRSRPPRLPRPRPRPSQYPRP,-0.466
13,RRIRDRPPRLPRPRPRPPDCPRP,0.077
14,RRIRMRPPRLPRPRPRPDCCPRP,2.61
15,RRIRARPPRLPRPRPRPNWAPRP,0.27
16,RRIRFRPPRLPRPRPRPPHNPRP,0.0036
17,RRIRIRPPRLPRPRPRPYCWPRP,-0.185
18,RRIRPRPPRLPRPRPRPKVSPRP,0.0436
19,RRIRPRPPRLPRPRPRPWTNPRP,-0.0167
20,RRIRSRPPRLPRPRPRPSGVPRP,-0.0112
21,RRIRMRPPRLPRPRPRPSWVPRP,0.051
22,RRIRNRPPRLPRPRPRPLMVPRP,-0.254
23,RRIRSRPPRLPRPRPRPHFLPRP,-0.318
24,RRIRMRPPRLPRPRPRPPHRPRP,0.567
25,RRIRFRPPRLPRPRPRPIDTPRP,-0.127

row,Sequence,shrunken log2 fold change
1,RRIRIRPPRLPRPRPRPPIEPRP,0.0545
2,RRIRERPPRLPRPRPRPTRQPRP,0.588
3,RRIRGRPPRLPRPRPRPPDYPRP,0.135
4,RRIRDRPPRLPRPRPRPYQVPRP,-0.183
5,RRIRDRPPRLPRPRPRPRNIPRP,-0.0463
6,RRIRLRPPRLPRPRPRPGAVPRP,0.375
7,RRIRARPPRLPRPRPRPPSVPRP,0.479
8,RRIRIRPPRLPRPRPRPSVLPRP,-0.189
9,RRIRRRPPRLPRPRPRPKVQPRP,-0.0356
10,RRIRPRPPRLPRPRPRPWYDPRP,-0.00228
11,RRIRKRPPRLPRPRPRPILHPRP,-0.394
12,RRIRCRPPRLPRPRPRPNCMPRP,-0.369
13,RRIRCRPPRLPRPRPRPILWPRP,0.0346
14,RRIRRRPPRLPRPRPRPYCMPRP,-0.546
15,RRIRARPPRLPRPRPRPCPTPRP,0.088
16,RRIRPRPPRLPRPRPRPKWMPRP,-0.158
17,RRIRIRPPRLPRPRPRPCQTPRP,-0.02
18,RRIRTRPPRLPRPRPRPQYAPRP,-0.317
19,RRIRERPPRLPRPRPRPNVNPRP,-0.34
20,RRIRIRPPRLPRPRPRPCPWPRP,-0.161
21,RRIRARPPRLPRPRPRPAVNPRP,0.102
22,RRIRIRPPRLPRPRPRPTNYPRP,-0.745
23,RRIRVRPPRLPRPRPRPHNVPRP,-0.859
24,RRIRFRPPRLPRPRPRPKWPPRP,0.27
25,RRIRFRPPRLPRPRPRPTSSPRP,-0.0359

row,Sequence,shrunken log2 fold change
1,RRIRSRPPRLPRPRPRPESMPRP,0.151
2,RRIRERPPRLPRPRPRPDMGPRP,-0.265
3,RRIRWRPPRLPRPRPRPPSYPRP,-0.116
4,RRIRDRPPRLPRPRPRPGFMPRP,0.219
5,RRIRRRPPRLPRPRPRPQDNPRP,-0.668
6,RRIRYRPPRLPRPRPRPQKDPRP,-0.177
7,RRIRQRPPRLPRPRPRPGCIPRP,-0.306
8,RRIRWRPPRLPRPRPRPRIVPRP,0.0526
9,RRIRARPPRLPRPRPRPSFKPRP,-0.109
10,RRIRYRPPRLPRPRPRPHTNPRP,-0.661
11,RRIRSRPPRLPRPRPRPCQAPRP,0.116
12,RRIRLRPPRLPRPRPRPIVCPRP,0.0348
13,RRIRHRPPRLPRPRPRPQIPPRP,0.0645
14,RRIRVRPPRLPRPRPRPGQGPRP,0.065
15,RRIRHRPPRLPRPRPRPFGSPRP,-0.0134
16,RRIRMRPPRLPRPRPRPMPKPRP,0.0834
17,RRIRDRPPRLPRPRPRPFDQPRP,-0.115
18,RRIRNRPPRLPRPRPRPICCPRP,-0.062
19,RRIRDRPPRLPRPRPRPMKSPRP,0.0815
20,RRIRNRPPRLPRPRPRPSTRPRP,0.326
21,RRIRHRPPRLPRPRPRPKEDPRP,2.87
22,RRIRYRPPRLPRPRPRPRMIPRP,-0.118
23,RRIRYRPPRLPRPRPRPGPHPRP,-0.115
24,RRIRDRPPRLPRPRPRPEKDPRP,0.194
25,RRIRNRPPRLPRPRPRPYMKPRP,-0.03

row,Sequence,shrunken log2 fold change
1,RRIRPRPPRLPRPRPRPKKEPRP,0.0526
2,RRIRARPPRLPRPRPRPGMEPRP,0.161
3,RRIRGRPPRLPRPRPRPNMCPRP,-0.0942
4,RRIRNRPPRLPRPRPRPDCWPRP,-0.0568
5,RRIRARPPRLPRPRPRPSVNPRP,-0.383
6,RRIRGRPPRLPRPRPRPDRAPRP,1.04
7,RRIRNRPPRLPRPRPRPEGCPRP,-0.0205
8,RRIRKRPPRLPRPRPRPWLDPRP,0.296
9,RRIRLRPPRLPRPRPRPIMAPRP,0.0391
10,RRIRIRPPRLPRPRPRPWSMPRP,-0.00809
11,RRIRWRPPRLPRPRPRPMCKPRP,-0.0527
12,RRIRNRPPRLPRPRPRPIRYPRP,-0.746
13,RRIRSRPPRLPRPRPRPVQKPRP,0.178
14,RRIRPRPPRLPRPRPRPSFKPRP,-0.123
15,RRIRKRPPRLPRPRPRPWMRPRP,0.373
16,RRIRHRPPRLPRPRPRPRQVPRP,-0.108
17,RRIRDRPPRLPRPRPRPPTLPRP,-0.0573
18,RRIRSRPPRLPRPRPRPWSQPRP,-0.00693
19,RRIRWRPPRLPRPRPRPECLPRP,0.444
20,RRIRQRPPRLPRPRPRPMSQPRP,-0.0185
21,RRIRFRPPRLPRPRPRPMFQPRP,-0.336
22,RRIRERPPRLPRPRPRPAFWPRP,0.632
23,RRIRFRPPRLPRPRPRPQNPPRP,-0.231
24,RRIRKRPPRLPRPRPRPHSNPRP,0.095
25,RRIRSRPPRLPRPRPRPWSSPRP,0.0531
